Molecular target: PAR-5 (UniProt P41932)
Assay: IP anti-GFP, blot anti-PAR-5
Conditions: reference: wild type ATGL-1::GFP; sites S303

binding against the reference: weaker
Substance: ATGL-1 (from UniProt Q11186) ATGL-1(S303A)::GFP

— article PMC4476745
